B1: Hairpin Ribozyme (parent)
chain: GUCCUCUUUCACGUGCGCGUGAAAGAGAGAAGUGAACCAGAGAAACACACGUUGUGGUAUAUUACCUGGUA

Variants of: B1
Assay: self-cleavage, relative activity (ratio to wild type); higher = more cleavage; co-transcriptional

Variant	self-cleavage
GUCCUCUUUCACGUGCGCGUGAAUGAGAGAAGCGAACCAGAGAAACACACGUUGUGGUAUAUUACCUGGUA	0.0916
GUCCUCUUUCACGUGCGCGUGAAAAAGAGAAGUGAAUCAGAGAAACACACGUUGUGGUAUAUUACCUGGUA	0.494
GUCCUCUUUCACGUGCGCGUGAAAAAGAGAAGUGAACCAGAGAAACACACGUUGUGGUAUAUUUCCUGGUA	0.173
GUCCUCUUUCACGUGCGCGUGAAAAAGAGAAGUGAACCAGAGAAACACACGUUGUGGUAUAUUCCCUGGUA	0.23
GUCCUCUUUCACGUGCGCGUGAAAAAGAGAAGUGAACCAGAGAAACACACGUUGUGGUAUAUUACCUGGUA	0.634
GUCCUCUUUCACGUGCGCGUGAAAAAGAGUAGUGAACCAGAGAAACACACGUUGUGGUAUAUUACCUGGUA	0.234
GUCCUCUUUCACGUGCGCGUGAAAAAGAGGAGUGAACCAGAGAAACACACGUUGUGGUAUAUUACCUGGUA	0.188
GUCCUCUUUCACGUGCGCGUGAAUGAGAGAAGUGAACCAGAGAAACACACCUUGUGGUAUAUUACCUGGUA	0.805
GUCCUCUUUCACGUGCGCGUGAAUGAGAGAAGUGAACCAGAGAAACACACGUUGUGGUGUAUUACCUGGUA	0.183
GUCCUCUUUCACGUGCGCGUGAAUGAGAGAAGUGAACAAGAGAAACACACGUUGUGGUAUAUUACCUGGUA	0.154
GUCCUCUUUCACGUGCGCGUGAAUGAGAGACGUGAACCAGAGAAACACACGUUGUGGUAUAUUACCUGGUA	0.163
GUCCUCUUUCACGUGCGCGUGAAAAAGAGAAGUGAACCAGAGAAACACACGUUGUGGUAUAUUACUUGGUA	0.239
GUCCUCUUUCACGUGCGCGUGAAUGAGAGAAGUGAACCAGAGAAAAACACGUUGUGGUAUAUUACCUGGUA	0.11
GUCCUCUUUCACGUGCGCGUGAAUGAGAGAAGUGAACCAGAGAAACACACGUCGUGGUAUAUUACCUGGUA	0.885
GUCCUCUUUCACGUGCGCGUGAAUGAGAGAAGUGAACCAGAGAAACACACGUAGUGGUAUAUUACCUGGUA	1.03
GUCCUCUUUCACGUGCGCGUGAAAAAGAGAACUGAACCAGAGAAACACACGUUGUGGUAUAUUACCUGGUA	0.0951
GUCCUCUUUCACGUGCGCGUGAAUGAGAGAAGUGAACCAGAGAAACAUACGUUGUGGUAUAUUACCUGGUA	0.252
GUCCUCUUUCACGUGCGCGUGAAAAAGAGAAGUAAACCAGAGAAACACACGUUGUGGUAUAUUACCUGGUA	0.715
GUCCUCUUUCACGUGCGCGUGAAAAAGAGAAGUUAACCAGAGAAACACACGUUGUGGUAUAUUACCUGGUA	1.11

Variant	self-cleavage
GUCCUCUUUCACGUGCGCGUGAAUGAGCGAAGUGAACCAGAGAAACACACGUUGUGGUAUAUUACCUGGUA	0.449
GUCCUCUUUCACGUGCGCGUGAAGGAGAGAAGAGAACCAGAGAAACACACGUUGUGGUAUAUUACCUGGUA	0.118
GUCCUCUUUCACGUGCGCGUGAAUGAGAGAAGUGAACCAGAGAAACACACGUUGUGGUAUUUUACCUGGUA	0.187
GUCCUCUUUCACGUGCGCGUGAAAAAGAGAAGUGAACCAGAGAAAUACACGUUGUGGUAUAUUACCUGGUA	0.116
GUCCUCUUUCACGUGCGCGUGAAAAAAAGAAGUGAACCAGAGAAACACACGUUGUGGUAUAUUACCUGGUA	0.148
GUCCUCUUUCACGUGCGCGUGAAAAAGAGAAGUGAACCAGGGAAACACACGUUGUGGUAUAUUACCUGGUA	0.494
GUCCUCUUUCACGUGCGCGUGAAUGAGAGAAGUGAACCCGAGAAACACACGUUGUGGUAUAUUACCUGGUA	0.5
GUCCUCUUUCACGUGCGCGUGAAUGAGAGAAGUGAACCAGAGAAACACACGUUGUGGUAUAUUGCCUGGUA	0.492
GUCCUCUUUCACGUGCGCGUGAAAAAGAGACGUGAACCAGAGAAACACACGUUGUGGUAUAUUACCUGGUA	0.128
GUCCUCUUUCACGUGCGCGUGAAUGAGAGAAGUGAACCAGAGAAACACACGUUGUGUUAUAUUACCUGGUA	0.188
GUCCUCUUUCACGUGCGCGUGAAAAAGAGAAGUGCACCAGAGAAACACACGUUGUGGUAUAUUACCUGGUA	0.738
GUCCUCUUUCACGUGCGCGUGAAUGAGAGGAGUGAACCAGAGAAACACACGUUGUGGUAUAUUACCUGGUA	0.164
GUCCUCUUUCACGUGCGCGUGAAUGAGAGAAGUGAACCAGAGAAACACAGGUUGUGGUAUAUUACCUGGUA	0.341
GUCCUCUUUCACGUGCGCGUGAAAAAGAGAAGUGAACCAGAGAAACACACGUUGUGGUAUCUUACCUGGUA	0.196
GUCCUCUUUCACGUGCGCGUGAAUGAGAGAAGUGAAACAGAGAAACACACGUUGUGGUAUAUUACCUGGUA	0.304
GUCCUCUUUCACGUGCGCGUGAAGGAGAGAAGUGAACCAGAGAAACACACGUUGUGGUAUAUUACCAGGUA	0.204
GUCCUCUUUCACGUGCGCGUGAAAAAGAGAAGUGAACCAGAGAUACACACGUUGUGGUAUAUUACCUGGUA	0.179
GUCCUCUUUCACGUGCGCGUGAAUGAGAGAAGUGAACCAGGGAAACACACGUUGUGGUAUAUUACCUGGUA	0.71
GUCCUCUUUCACGUGCGCGUGAAAAAGAGAAGUGAACCAGAGAAACACACGUUGUGGUCUAUUACCUGGUA	0.196
